Biological target: soluble recombinant uPAR (suPAR), expressed in Drosophila S2 cells (UniProt Q03405)
Sequence (Q03405 23-299): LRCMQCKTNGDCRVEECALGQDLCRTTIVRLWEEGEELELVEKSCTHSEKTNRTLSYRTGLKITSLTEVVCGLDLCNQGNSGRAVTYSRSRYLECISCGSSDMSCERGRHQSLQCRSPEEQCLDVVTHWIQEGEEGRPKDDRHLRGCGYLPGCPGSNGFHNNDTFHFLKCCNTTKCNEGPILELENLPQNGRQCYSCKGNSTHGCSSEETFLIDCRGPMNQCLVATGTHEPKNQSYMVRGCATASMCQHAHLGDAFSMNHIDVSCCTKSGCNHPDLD

recombinant human single chain urokinase plasminogen activator (scuPA), wild-type, aa1-411 of the mature human sequence, expressed in Drosophila S2 cells
activity of scuPA in complex with suPAR: scuPA prepared in this manner was active in complex with suPAR as well as when activated by plasmin

Source: US20030219386
